Results: the supplement of paper PMC9112550, “Optimization of the antimicrobial peptide Bac7 by deep mutational scanning” (BMC Biology, 2022)

test system: Escherichia coli TOP10; test: shrunken log2 fold change of peptide-encoding DNA abundance (4.5 h post-induction vs induction); higher = less antimicrobial activity (less host growth inhibition); settings: time post-induction: 4.5 h; library: site-saturation at positions 5, 18, 19, 20
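Note: peptides expressed intracellularly from a pBAD plasmid library in pooled LB shake-flask culture, induced with 0.3% L-arabinose, DNA abundance read by NGS, three biological replicates, DESeq2 with apeglm shrinkage.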

Sequence	shrunken log2 fold change
RRIRVRPPRLPRPRPRPWYKPRP	-0.252
RRIRQRPPRLPRPRPRPNSVPRP	-0.265
RRIRRRPPRLPRPRPRPIWSPRP	-0.000832
RRIRLRPPRLPRPRPRPWGEPRP	-0.0317
RRIRYRPPRLPRPRPRPTLCPRP	-0.239
RRIRIRPPRLPRPRPRPERDPRP	-0.175
RRIRYRPPRLPRPRPRPWFPPRP	-0.523
RRIRHRPPRLPRPRPRPIRGPRP	0.0308
RRIRGRPPRLPRPRPRPWSEPRP	0.127
RRIRARPPRLPRPRPRPTSLPRP	0.225
RRIRARPPRLPRPRPRPYITPRP	-0.904
RRIRCRPPRLPRPRPRPSVSPRP	-0.185
RRIRCRPPRLPRPRPRPKQWPRP	-0.0437
RRIRMRPPRLPRPRPRPLMAPRP	2.47
RRIRIRPPRLPRPRPRPLEWPRP	-0.0139
RRIRSRPPRLPRPRPRPFFHPRP	-0.498
RRIRWRPPRLPRPRPRPSPVPRP	-0.0363
RRIRRRPPRLPRPRPRPQCCPRP	0.49
RRIRWRPPRLPRPRPRPLQCPRP	0.101
RRIRFRPPRLPRPRPRPAYQPRP	-0.135
RRIRLRPPRLPRPRPRPVRPPRP	-0.0457
RRIRIRPPRLPRPRPRPNCSPRP	-0.175
RRIRGRPPRLPRPRPRPEALPRP	1.33
RRIRWRPPRLPRPRPRPNFCPRP	0.0758
RRIRCRPPRLPRPRPRPITLPRP	-0.441

Sequence	shrunken log2 fold change
RRIRQRPPRLPRPRPRPSTEPRP	-0.0926
RRIRCRPPRLPRPRPRPFSDPRP	-0.165
RRIRCRPPRLPRPRPRPFYVPRP	-0.825
RRIRGRPPRLPRPRPRPCGDPRP	0.581
RRIRRRPPRLPRPRPRPPMYPRP	0.0631
RRIRWRPPRLPRPRPRPLFLPRP	-0.318
RRIRHRPPRLPRPRPRPKVRPRP	-0.0711
RRIRSRPPRLPRPRPRPNLVPRP	-0.0453
RRIRMRPPRLPRPRPRPPCFPRP	0.257
RRIRYRPPRLPRPRPRPLAVPRP	-0.0867
RRIRLRPPRLPRPRPRPTMAPRP	-0.283
RRIRVRPPRLPRPRPRPQFSPRP	-0.0362
RRIRHRPPRLPRPRPRPDTHPRP	-1.19
RRIRIRPPRLPRPRPRPTIEPRP	-0.44
RRIRIRPPRLPRPRPRPCDAPRP	-0.27
RRIRARPPRLPRPRPRPYWCPRP	-0.33
RRIRGRPPRLPRPRPRPYNIPRP	-0.2
RRIRKRPPRLPRPRPRPPWVPRP	0.221
RRIRLRPPRLPRPRPRPTQAPRP	0.507
RRIRFRPPRLPRPRPRPVDWPRP	0.194
RRIRYRPPRLPRPRPRPERGPRP	-0.0437
RRIRMRPPRLPRPRPRPYTKPRP	-0.0606
RRIRYRPPRLPRPRPRPSAPPRP	-0.353
RRIRPRPPRLPRPRPRPCYCPRP	-0.722
RRIRSRPPRLPRPRPRPLQQPRP	0.553

Sequence	shrunken log2 fold change
RRIRCRPPRLPRPRPRPPHKPRP	0.68
RRIRKRPPRLPRPRPRPACLPRP	0.222
RRIRWRPPRLPRPRPRPARYPRP	-0.0422
RRIRYRPPRLPRPRPRPMEAPRP	-0.163
RRIRSRPPRLPRPRPRPLSGPRP	-0.0801
RRIRIRPPRLPRPRPRPHGDPRP	-0.125
RRIRLRPPRLPRPRPRPYLDPRP	0.0027
RRIRCRPPRLPRPRPRPWAKPRP	-0.234
RRIRNRPPRLPRPRPRPYAPPRP	-0.702
RRIRSRPPRLPRPRPRPPGIPRP	0.157
RRIRHRPPRLPRPRPRPSSHPRP	-1.3
RRIRMRPPRLPRPRPRPADRPRP	0.707
RRIRQRPPRLPRPRPRPKTYPRP	-0.241
RRIRIRPPRLPRPRPRPLVPPRP	-0.33
RRIRYRPPRLPRPRPRPMKLPRP	-0.58
RRIRERPPRLPRPRPRPSISPRP	0.0881
RRIRARPPRLPRPRPRPKEPPRP	0.991
RRIRRRPPRLPRPRPRPDYLPRP	0.152
RRIRCRPPRLPRPRPRPAKTPRP	-0.0664
RRIRERPPRLPRPRPRPDFVPRP	0.105
RRIRERPPRLPRPRPRPHDFPRP	-0.0616
RRIRWRPPRLPRPRPRPQAYPRP	0.0869
RRIRWRPPRLPRPRPRPTEYPRP	-0.0755
RRIRSRPPRLPRPRPRPHTLPRP	-0.116
RRIRARPPRLPRPRPRPDGYPRP	0.647
